Results reported in publication PMC8831599, “Defining molecular glues with a dual-nanobody cannabidiol sensor” (Nature Communications, 2022).

Legend:
[1] = molecular target: Biotin-DB21 (biotinylated Avi-DB21); assay: BLI; biotinylated DB21 on streptavidin probe, tag-free CA14 as analyte, no CBD; 30 °C; 25 mM HEPES pH 7.4, 100 mM NaCl, no TCEP, 0.1% Tween-20, 0.05 mg/mL BSA; kinetic and steady-state analysis differ
[2] = molecular target: Biotin-DB21 (biotinylated Avi-DB21); assay: AlphaScreen or HTRF; competition without CBD: 200 nM His-CA14 on acceptor beads, 67 nM biotinylated DB21 (wild type or mutant) on streptavidin donor beads, label-free protein titrated; 25 mM HEPES pH 7.4, 100 mM NaCl, no TCEP, 0.1% Tween-20, 0.05 mg/mL BSA

B1: CA14 anchor binder nanobody, tag-free (VHH)
VHH: EVQLQASGGGFVQPGGSLRLSCAASGSTSRQYDMGWFRQAPGKEREFVSAISSNQDQPPYYADSVKGRFTISRDNSKNTVYLQMNSLRAEDTATYYCAFKQHHANGAYWGQGTQVTVSS
Binder B1 has a Kd [1] of 19 µM, a Kd determined by kinetics [1] of 3 µM and an IC50 [2] of 20 µM.
